In patent US12116698 one finds Kd data, which are given here for four molecules.

Where no end group is shown, it is not given here. [ ]: non-standard residue; d: D form. fluorescent label = not defined here; Dap = NC[C@H](N)C(=O)O; Cm = not defined here

Experiment [1] addresses Streptavidin, P22629. Briefly: fluorescence intensity of streptavidin-coated beads at varied peptide concentrations, hyperbola fit.
The target in experiment [2] is T1, sortase A (SrtA) (S. aureus), Q2FV99.
T1 chain: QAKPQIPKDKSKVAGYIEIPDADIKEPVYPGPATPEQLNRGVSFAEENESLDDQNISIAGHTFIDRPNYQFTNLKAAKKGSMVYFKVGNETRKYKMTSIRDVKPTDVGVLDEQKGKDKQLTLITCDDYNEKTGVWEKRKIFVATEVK
Put plainly: fluorescence polarization (anisotropy), SrtA titrated into peptide solution. On the technique in general: In fluorescence polarisation assays a small probe gives low polarisation when free and higher when bound to something large.

Experiment [3] has the same target. Put plainly: mean fluorescence intensity of SrtA-coated beads against peptide concentration, curve fit.

Streptavidin, P22629, sequence (P22629 37-163 limits assumed): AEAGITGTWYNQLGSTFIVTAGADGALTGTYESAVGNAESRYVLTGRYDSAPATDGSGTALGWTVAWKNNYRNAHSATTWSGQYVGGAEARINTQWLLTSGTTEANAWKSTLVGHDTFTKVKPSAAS

For orientation: Kd means the free concentration of one partner at which half of the binding sites on the other are occupied at equilibrium, for simple one-to-one binding. In the case of A[Cm]TPRSANY[Cm]GGG[Dap](fluorescent label) (not fully specified; reading uncertain; also: fluorescent label not named) [SA1], the Kd in experiment [1] worked out at 6 µM.

B1: W2 (peptide)
peptide: ACLNSSQPSCGGG[Dap](fluorescent label)
modifications: not fully specified (residues 2, 10); cysteine pairing not given here; reading uncertain; also: Cm code not defined, fluorescent label not named
Consider B1, for which the Kd in experiment [2] turned out to be 12 µM; in experiment [3] it was 14 µM.

B2: W1 (peptide)
peptide: ACHPVSGQKCGGG[Dap](fluorescent label)
modifications: not fully specified (residues 2, 10); cysteine pairing not given here; reading uncertain; also: Cm code not defined, fluorescent label not named
For the molecule B2, the Kd in experiment [3] stood at 14 µM.

In experiment [1], A[Cm]DGRPDRA[Cm]GGG[Dap](fluorescent label) (not fully specified; reading uncertain; also: fluorescent label not named) [SA2] came in with a Kd of 9 µM.
